± gives the standard deviation of the averaged measurements.
Assay: total protein half-life in vivo (active degradation + dilution); higher = more stable protein
[1] = wild type E. coli NCM3722, growth: C-lim chemostat, doubling time 3 h
[2] = E. coli NCM3722 delta-clpP delta-lon delta-hslV, growth: N-lim chemostat, doubling time 6 h
[3] = E. coli NCM3722 delta-clpP, growth: N-lim chemostat, doubling time 6 h
[4] = E. coli NCM3722 delta-lon, growth: N-lim chemostat, doubling time 6 h
[5] = E. coli NCM3722 delta-smpB, growth: N-lim chemostat, doubling time 6 h
[6] = wild type E. coli NCM3722, growth: C-lim chemostat, doubling time 6 h
[7] = wild type E. coli NCM3722, growth: C-lim chemostat, doubling time 12 h
[8] = wild type E. coli NCM3722, growth: N-lim chemostat, doubling time 6 h
[9] = wild type E. coli NCM3722, growth: N-lim chemostat, doubling time 12 h
[10] = wild type E. coli NCM3722, growth: P-lim chemostat, doubling time 6 h
[11] = wild type E. coli NCM3722, growth: P-lim chemostat, doubling time 12 h
[12] = E. coli NCM3722 delta-hslV, growth: N-lim chemostat, doubling time 6 h

MINALGLLEVDGMVAAIDAADAMLKAANVRLLSHEVLDPGRLTLVVEGDLAACRAALDAGCAAAMRTGRVISRKEIGRPDDDTQWLVTGFNRQPKQPVREPDAPVIVAESADELLALLTSVRQGMTAGEVAAHFGWPLEKARNALEQLFSAGTLRKRSSRYRLKPH
total protein half-life in vivo [1]: 1.02 ± 0.097 h

MPDQTQQFSFKVLTINIHKGFTAFNRRFILPELRDAVRTVSADIVCLQEVMGAHEVHPLHVENWPDTSHYEFLADTMWSDFAYGRNAVYPEGHHGNAVLSRYPIEHYENRDVSVDGAEKRGVLYCRIVPPMTGKAIHVMCVHLGLREAHRQAQLAMLAEWVNELPDGEPVLVAGDFNDWRQKANHPLKVQAGLDEIFTRAHGRPARTFPVQFPLLRLDRIYVKNASASAPTALPLRTWRHLSDHAPLSAEIHL [P0AAW1]
total protein half-life in vivo [2]: 6.17 ± 0.23 h
total protein half-life in vivo [3]: 6.2 ± 0.43 h
total protein half-life in vivo [4]: 5.85 ± 0.22 h
total protein half-life in vivo [5]: 5.57 ± 0.47 h
total protein half-life in vivo [1]: 2.68 ± 0.41 h
total protein half-life in vivo [6]: 4.96 ± 0.51 h
total protein half-life in vivo [7]: 10.9 ± 3 h
total protein half-life in vivo [8]: 5.11 ± 0.57 h
total protein half-life in vivo [9]: 13.9 ± 0.67 h
total protein half-life in vivo [10]: 5.16 ± 0.24 h
total protein half-life in vivo [11]: 11.5 ± 0.52 h

MRLGTFHKKKRFYINKIKINFLSFLFRNKINNQITDPAQVKSCLIIHDNNKLGDLIVLSSIYRELYSKGVKITLLTNRKGGEFLSNNKNIFEFCIKESTGFLEMLTLCKHLRDLQFDIVLDPFETMPSFKHSLILSSLKDSYILGFDHWYKRYYSFYHPHDECLKEHMSTRAIEILKHIYGEGKFSTNYDLHLPVDVEDKIKEFIGDTRIVIINPLGAKKICRLTFEQIKVIYQEVKTHFENYRIIFTGLPQDLLTIPILEIETLPFDEFIYTVALTKYSDFVISVDTALVHIAAAYHKPTLAFYPNSRTPEYPSHLIWSPNHHKSIQIVSPTYTVKDIDTETLTNSVKRLSCIDKK
total protein half-life in vivo [2]: 5.5 ± 0.61 h
total protein half-life in vivo [3]: 6.56 ± 1.5 h
total protein half-life in vivo [12]: 5.9 ± 0.57 h
total protein half-life in vivo [5]: 5.44 ± 0.1 h
total protein half-life in vivo [1]: 2.96 ± 0.088 h
total protein half-life in vivo [7]: 11.5 ± 0.51 h
total protein half-life in vivo [8]: 5.67 ± 0.47 h
total protein half-life in vivo [9]: 12.8 ± 1.3 h
total protein half-life in vivo [10]: 5.23 ± 0.19 h
total protein half-life in vivo [11]: 12.2 ± 0.22 h

MKTLLIIDANLGQARAYMAKTLLGAAARKAKLEIIDNPNDAEMAIVLGDSIPNDSALNGKNVWLGDISRAVAHPELFLSEAKGHAKPYTAPVAATAPVAASGPKRVVAVTACPTGVAHTFMAAEAIETEAKKRGWWVKVETRGSVGAGNAITPEEVAAADLVIVAADIEVDLAKFAGKPMYRTSTGLALKKTAQELDKAVAEATPYEPAGKAQTATTESKKESAGAYRHLLTGVSYMLPMVVAGGLCIALSFAFGIEAFKEPGTLAAALMQIGGGSAFALMVPVLAGYIAFSIADRPGLTPGLIGGMLAVSTGSGFIGGIIAGFLAGYIAKLISTQLKLPQSMEALKPILIIPLISSLVVGLAMIYLIGKPVAGILEGLTHWLQTMGTANAVLLGAILGGMMCTDMGGPVNKAAYAFGVGLLSTQTYGPMAAIMAAGMVPPLAMGLATMVARRKFDKAQQEGGKAALVLGLCFISEGAIPFAARDPMRVLPCCIVGGALTGAISMAIGAKLMAPHGGLFVLLIPGAITPVLGYLVAIIAGTLVAGLAYAFLKRPEVDAVAKAA
total protein half-life in vivo [2]: 6.73 ± 0.62 h
total protein half-life in vivo [12]: 5.956 ± 0.014 h
total protein half-life in vivo [4]: 5.76 ± 0.27 h
total protein half-life in vivo [5]: 5.89 ± 0.43 h
total protein half-life in vivo [1]: 3.54 ± 0.33 h
total protein half-life in vivo [6]: 6.11 ± 0.28 h
total protein half-life in vivo [7]: 13.4 ± 0.7 h
total protein half-life in vivo [8]: 5.89 ± 0.44 h
total protein half-life in vivo [9]: 11.6 ± 0.25 h
total protein half-life in vivo [10]: 6.29 ± 0.29 h
total protein half-life in vivo [11]: 11.9 ± 0.6 h

MSFWKVAAAQYEPRKTSLTEQVAHHLEFVRAAARQQCQLLVFPSLSLLGCDYSRRALPAPPDLSLLDPLCYAATTWRMTIIAGLPVEYNDRFIRGIAVFAPWRKTPGIYHQSHGACLGRRSRTITVVDEQPQGMDMDPTCSLFTTGQCLGEPDLLASARRLQFFSHQYSIAVLMANARGNSALWDEYGRLIVRADRGSLLLVGQRSSQGWQGDIIPLR
total protein half-life in vivo [2]: 5.47 h

MSQALKNLLTLLNLEKIEEGLFRGQSEDLGLRQVFGGQVVGQALYAAKETVPEERLVHSFHSYFLRPGDSKKPIIYDVETLRDGNSFSARRVAAIQNGKPIFYMTASFQAPEAGFEHQKTMPSAPAPDGLPSETQIAQSLAHLLPPVLKDKFICDRPLEVRPVEFHNPLKGHVAEPHRQVWIRANGSVPDDLRVHQYLLGYASDLNFLPVALQPHGIGFLEPGIQIATIDHSMWFHRPFNLNEWLLYSVESTSASSARGFVRGEFYTQDGVLVASTVQEGVMRNHN [P0AGG2]
total protein half-life in vivo [2]: 5.35 ± 0.059 h
total protein half-life in vivo [3]: 5.17 ± 0.18 h
total protein half-life in vivo [12]: 4.986 ± 0.04 h
total protein half-life in vivo [4]: 5.37 ± 0.47 h
total protein half-life in vivo [5]: 5.17 ± 0.67 h
total protein half-life in vivo [6]: 6.42 ± 0.37 h
total protein half-life in vivo [7]: 10.69 ± 0.082 h
total protein half-life in vivo [8]: 5.04 ± 0.13 h
total protein half-life in vivo [9]: 8.59 ± 0.29 h
total protein half-life in vivo [10]: 5.922 ± 0.027 h
total protein half-life in vivo [11]: 13.018 ± 0.0091 h

MIHAFIKKGCFQDSVSLMIISRKLSESENVDDVSVMMGTPANKALLDTTGFWHDDFNNATPNDICVAIRSEAADAGIAQAIMQQLEEALKQLAQGSGSSQALTQVRRWDSACQKLPDANLALISVAGEYAAELANQALDRNLNVMMFSDNVTLEDEIQLKTRAREKGLLVMGPDCGTSMIAGTPLAFANVMPEGNIGVIGASGTGIQELCSQIALAGEGITHAIGLGGRDLSREVGGISALTALEMLSADEKSEVLAFVSKPPAEAVRLKIVNAMKATGKPTVALFLGYTPAVARDENVWFASSLDEAARLACLLSRVTARRNAIAPVSSGFICGLYTGGTLAAEAAGLLAGHLGVEADDTHQHGMMLDADSHQIIDLGDDFYTVGRPHPMIDPTLRNQLIADLGAKPQVRVLLLDVVIGFGATADPAASLVSAWQKACAARLDNQPLYAIATVTGTERDPQCRSQQIATLEDAGIAVVSSLPEATLLAAALIHPLSPAAQQHTPSLLENVAVINIGLRSFALELQSASKPVVHYQWSPVAGGNKKLARLLERLQ
total protein half-life in vivo [1]: 2.65 h
total protein half-life in vivo [6]: 4.54 h

MRIGIDLGGTKTEVIALGDAGEQLYRHRLPTPRDDYRQTIETIATLVDMAEQATGQRGTVGMGIPGSISPYTGVVKNANSTWLNGQPFDKDLSARLQREVRLANDANCLAVSEAVDGAAAGAQTVFAVIIGTGCGAGVAFNGRAHIGGNGTAGEWGHNPLPWMDEDELRYREEVPCYCGKQGCIETFISGTGFAMDYRRLSGHALKGSEIIRLVEESDPVAELALRRYELRLAKSLAHVVNILDPDVIVLGGGMSNVDRLYQTVGQLIKQFVFGGECETPVRKAKHGDSSGVRGAAWLWPQE
total protein half-life in vivo [2]: 5.21 ± 0.15 h
total protein half-life in vivo [3]: 5.38 ± 0.09 h
total protein half-life in vivo [12]: 6.33 ± 1.9 h
total protein half-life in vivo [4]: 5.67 ± 0.31 h
total protein half-life in vivo [5]: 5.3 ± 0.66 h
total protein half-life in vivo [1]: 2.8 ± 0.4 h
total protein half-life in vivo [6]: 5.8 ± 0.29 h
total protein half-life in vivo [7]: 11.8 ± 2.8 h
total protein half-life in vivo [8]: 5.18 ± 0.18 h
total protein half-life in vivo [9]: 9.94 ± 4 h
total protein half-life in vivo [10]: 6.21 ± 0.56 h
total protein half-life in vivo [11]: 11.7 ± 0.5 h

MRILLIEDDMLIGDGIKTGLSKMGFSVDWFTQGRQGKEALYSAPYDAVILDLTLPGMDGRDILREWREKGQREPVLILTARDALAERVEGLRLGADDYLCKPFALIEVAARLEALMRRTNGQASNELRHGNVMLDPGKRIATLAGEPLTLKPKEFALLELLMRNAGRVLSRKLIEEKLYTWDEEVTSNAVEVHVHHLRRKLGSDFIRTVHGIGYTLGEK
total protein half-life in vivo [2]: 4.652 ± 0.039 h
total protein half-life in vivo [3]: 4.22 ± 0.3 h
total protein half-life in vivo [12]: 4.1 ± 0.33 h
total protein half-life in vivo [4]: 4.5 ± 0.27 h
total protein half-life in vivo [5]: 4.06 ± 0.37 h
total protein half-life in vivo [1]: 2.92 ± 0.042 h
total protein half-life in vivo [6]: 5.51 ± 0.24 h
total protein half-life in vivo [7]: 10.8 ± 1.9 h
total protein half-life in vivo [8]: 4.2 ± 0.12 h
total protein half-life in vivo [9]: 6.35 ± 0.32 h
total protein half-life in vivo [10]: 5.267 ± 0.0074 h
total protein half-life in vivo [11]: 11 ± 0.5 h

Reference: the supplement of paper PMC11246515
